Our source for the stoichiometry N values is article PMC5404835.

The target of the test is C-peptide-mCherry generated from RINS1 (human). The test is described as follows: western blot of cell lysate (band size); lysates of MIN6 cells expressing RINS1 (lysis buffer 10 mM Tris/Cl pH 7.5, 150 mM NaCl, 0.5 mM EDTA, 0.5% NP-40), NuPAGE 4-12% Bis-Tris gel, anti-mCherry antibody.

Usually stoichiometry N stands for a count of units in the complex or per binding partner.

Turning to “C-peptide-mCherry generated from RINS1 (domain or fragment)”, the stoichiometry N was 2.
